The target of test [1] is ActRIIA expressed by A204 human rhabdomyosarcoma cells (human, UniProt P27037 20-513). The experiment in a line: cell-based or functional assay.
The target of test [2] is T1, ActRIIA-Fc (ActRIIA-mFc, dimeric protein) (human, UniProt P27037 20-135). Briefly: SPR (BIACORE); Ab-14E1 captured by immobilized anti-mFc IgG, ActRIIA-Fc as analyte. From the text: (§1) FIG. 9 depicts the kinetics of ActRIIA-Fc binding to Ab-14E1 as determined by BIACORE™-based analysis. A. Ab-14E1 was captured on a chip with covalently immobilized anti-mFC IgG and then exposed to ActRIIA-Fc at different concentrations. […] RU, relative units.
T1 sequence (P27037 20-135 limits assumed): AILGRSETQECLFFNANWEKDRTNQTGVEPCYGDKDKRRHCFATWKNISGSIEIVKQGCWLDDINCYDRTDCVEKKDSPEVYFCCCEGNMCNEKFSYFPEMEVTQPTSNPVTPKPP
(In SPR one partner is held on a chip, and binding of the other changes the refractive index at the surface.)

Test [3] addresses T1, ActRIIA-Fc (ActRIIA-mFc, dimeric …). Briefly: SPR (BIACORE): Ab-14E1 captured on a CM5 chip by immobilized anti-mFc IgG, ActRIIA-mFc injected at different concentrations, nonlinear regression.
Excerpt: as §1

The target in test [4] is T2, monomeric ActRIIA tagged with histidine (ActRIIA-His) (human, UniProt P27037 20-135).
T2 construct: also called monomeric extracellular domain of ActRIIA tagged with histidine
T2 sequence (P27037 other isoform, or with tags, fused parts or gaps limits assumed): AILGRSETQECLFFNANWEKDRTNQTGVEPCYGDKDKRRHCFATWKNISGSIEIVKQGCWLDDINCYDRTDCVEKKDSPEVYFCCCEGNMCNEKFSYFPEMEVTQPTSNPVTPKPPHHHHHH
The experiment in a line: SPR (BIACORE).

ActRIIA expressed by A204 human rhabdomyosarcoma cells, sequence (P27037 20-513 limits assumed): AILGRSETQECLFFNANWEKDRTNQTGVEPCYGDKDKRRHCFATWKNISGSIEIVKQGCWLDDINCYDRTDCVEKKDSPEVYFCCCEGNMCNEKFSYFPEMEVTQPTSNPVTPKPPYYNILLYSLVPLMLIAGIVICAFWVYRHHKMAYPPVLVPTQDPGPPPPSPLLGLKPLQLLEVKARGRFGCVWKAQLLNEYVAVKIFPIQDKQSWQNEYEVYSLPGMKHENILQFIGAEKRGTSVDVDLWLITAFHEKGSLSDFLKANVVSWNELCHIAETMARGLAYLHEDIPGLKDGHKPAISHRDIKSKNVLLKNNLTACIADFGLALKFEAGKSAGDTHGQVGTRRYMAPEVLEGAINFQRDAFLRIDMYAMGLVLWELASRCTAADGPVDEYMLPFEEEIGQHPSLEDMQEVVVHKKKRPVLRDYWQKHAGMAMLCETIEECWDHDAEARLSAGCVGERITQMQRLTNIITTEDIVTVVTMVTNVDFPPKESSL

B1: Ab-14E1 (antibody 14E1; hybridoma subclone 14E1.H8.H1) (antibody, V domains shown)
VH: DVQLQESGPGLVKPSQSLSLTCSVTGYSITSGYYWNWIRQFPGNKLEWMGYISYDGSNNYNPSLINRISITRDTSKNQFFLKLNSVTTEDTATYFCASYAYRNDVRFAYWGQGTLVTVSA
VL: DIQMTQTTSSLSASLGDRVTISCRASQDISNFLNWYQQKPDGTVKLLIYFTSRLHSGVPSRFSGSGSGTDYSLTITNLEQEDIATYFCQQGNTLPWTFGGGTKLEIK
In general, Kd refers to the constant that tells how readily two partners part at equilibrium. Read a low Kd as tighter binding. In general, koff refers to the rate constant with which the complex falls apart. A higher koff goes with fast dissociation. In general, kon refers to a measure of how fast the partners come together. Consider B1, for which, in test [1], the “IC50 of inhibition of activin A-stimulated reporter gene expression (pGL3(CAGA)12 luciferase) in A204 cells” value came out at 57.1 ng/ml. In test [2], this molecule showed a Kd of approximately 0.012 nM and a koff of approximately 1e-06 s⁻¹. In test [3], this molecule showed a kon of 86000 M⁻¹ s⁻¹. In addition, the “fold lower affinity than for ActRIIA-mFc” value in test [4] came out at 10 fold.

These data come from US20120121576A1 (ACCELERON PHARMA, published 2012).
